Data reported in US8221992.

Experiments:
[1] = biological target: GST-TRAM fusion protein (wild type), Q86XR7
[2] = biological target: Mal (MyD88 adaptor-like), P58753
[3] = biological target: GST-TRAM Ser16 mutant (serine 16 mutated to alanine), Q86XR7
Chain of GST-TRAM Ser16 mutant (serine 16 mutated to alanine), Q86XR7 (Q86XR7 whole entry, looked up, change not shown): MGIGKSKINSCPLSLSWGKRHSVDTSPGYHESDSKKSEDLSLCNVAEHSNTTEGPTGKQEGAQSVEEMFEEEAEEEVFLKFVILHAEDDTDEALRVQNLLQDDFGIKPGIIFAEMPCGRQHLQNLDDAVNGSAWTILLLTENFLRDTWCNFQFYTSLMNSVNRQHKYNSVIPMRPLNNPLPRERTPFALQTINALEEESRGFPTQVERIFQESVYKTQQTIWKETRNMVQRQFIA

Chain of GST-TRAM fusion protein (wild type), Q86XR7 (Q86XR7 whole entry, the tested form may be a part): as the sequence (Q86XR7 whole entry, looked up, change not shown) above
Chain of Mal (MyD88 adaptor-like), P58753 (P58753 whole entry): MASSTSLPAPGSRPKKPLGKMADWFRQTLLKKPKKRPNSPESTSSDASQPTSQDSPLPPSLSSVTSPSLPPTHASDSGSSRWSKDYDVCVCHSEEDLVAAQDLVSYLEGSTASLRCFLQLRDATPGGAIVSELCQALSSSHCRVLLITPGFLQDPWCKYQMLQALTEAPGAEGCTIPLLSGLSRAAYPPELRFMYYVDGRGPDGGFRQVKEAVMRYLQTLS

Row | Protein | phosphorylation in an in-vitro kinase assay ([γ32P] ATP, autoradiography) [1] | phosphorylation in an in-vitro kinase assay ([γ32P] ATP, autoradiography) [2] | phosphorylation of GST-TRAM after pulldown from immunodepleted THP1 lysates (kinase assay) [1] | phosphorylation of GST-TRAM after pulldown from THP1 lysates (kinase assay) [3]
1 | recombinant PKCε (rePKCε) (Calbiochem) (protein) MVVFNGLLKIKICEAVSLKPTAWSLRHAVGPRPQTFLLDPYIALNVDDSRIGQTATKQKTNSPAWHDEFVTDVCNGRKIELAVFHDAPIGYDDFVANCTIQFEELLQNGSRHFEDWIDLEPEGRVYVIIDLSGSSGEAPKDNEERVFRERMRPRKRQGAVRRRVHQVNGHKFMATYLRQPTYCSHCRDFIWGVIGKQGYQCQVCTCVVHKRCHELIITKCAGLKKQETPDQVGSQRFSVNMPHKFGIHNYKVPTFCDHCGSLLWGLLRQGLQCKVCKMNVHRRCETNVAPNCGVDARGIAKVLADLGVTPDKITNSGQRRKKLIAGAESPQPASGSSPSEEDRSKSAPTSPCDQEIKELENNIRKALSFDNRGEEHRAASSPDGQLMSPGENGEVRQGQAKRLGLDEFNFIKVLGKGSFGKVMLAELKGKDEVYAVKVLKKDVILQDDDVDCTMTEKRILALARKHPYLTQLYCCFQTKDRLFFVMEYVNGGDLMFQIQRSRKFDEPRSRFYAAEVTSALMFLHQHGVIYRDLKLDNILLDAEGHCKLADFGMCKEGILNGVTTTTFCGTPDYIAPEILQELEYGPSVDWWALGVLMYEMMAGQPPFEADNEDDLFESILHDDVLYPVWLSKEAVSILKAFMTKNPHKRLGCVASQNGEDAIKQHPFFKEIDWVLLEQKKIKPPFKPRIKTKRDVNNFDQDFTREEPVLTLVDEAIVKQINQEEFKGFSYFGEDLMP | recombinant PKCε (rePKCε) (Calbiochem) phosphorylated GST-TRAM | rePKCε phosphorylated WT-TRAM but not Mal |  | 
2 | PKCε in THP1 cell lysates (protein) MVVFNGLLKIKICEAVSLKPTAWSLRHAVGPRPQTFLLDPYIALNVDDSRIGQTATKQKTNSPAWHDEFVTDVCNGRKIELAVFHDAPIGYDDFVANCTIQFEELLQNGSRHFEDWIDLEPEGRVYVIIDLSGSSGEAPKDNEERVFRERMRPRKRQGAVRRRVHQVNGHKFMATYLRQPTYCSHCRDFIWGVIGKQGYQCQVCTCVVHKRCHELIITKCAGLKKQETPDQVGSQRFSVNMPHKFGIHNYKVPTFCDHCGSLLWGLLRQGLQCKVCKMNVHRRCETNVAPNCGVDARGIAKVLADLGVTPDKITNSGQRRKKLIAGAESPQPASGSSPSEEDRSKSAPTSPCDQEIKELENNIRKALSFDNRGEEHRAASSPDGQLMSPGENGEVRQGQAKRLGLDEFNFIKVLGKGSFGKVMLAELKGKDEVYAVKVLKKDVILQDDDVDCTMTEKRILALARKHPYLTQLYCCFQTKDRLFFVMEYVNGGDLMFQIQRSRKFDEPRSRFYAAEVTSALMFLHQHGVIYRDLKLDNILLDAEGHCKLADFGMCKEGILNGVTTTTFCGTPDYIAPEILQELEYGPSVDWWALGVLMYEMMAGQPPFEADNEDDLFESILHDDVLYPVWLSKEAVSILKAFMTKNPHKRLGCVASQNGEDAIKQHPFFKEIDWVLLEQKKIKPPFKPRIKTKRDVNNFDQDFTREEPVLTLVDEAIVKQINQEEFKGFSYFGEDLMP |  |  | the removal of PKCε from the lysates abolishes the phosphorylation of TRAM | we mutated serine 16 to an alanine and found that the LPS dependent phosphorylation of TRAM was severally impaired
3 | recombinant PKCζ (rePKCζ) (protein) MPSRTGPKMEGSGGRVRLKAHYGGDIFITSVDAATTFEELCEEVRDMCRLHQQHPLTLKWVDSEGDPCTVSSQMELEEAFRLARQCRDEGLIIHVFPSTPEQPGLPCPGEDKSIYRRGARRWRKLYRANGHLFQAKRFNRRAYCGQCSERIWGLARQGYRCINCKLLVHKRCHGLVPLTCRKHMDSVMPSQEPPVDDKNEDADLPSEETDGIAYISSSRKHDSIKDDSEDLKPVIDGMDGIKISQGLGLQDFDLIRVIGRGSYAKVLLVRLKKNDQIYAMKVVKKELVHDDEDIDWVQTEKHVFEQASSNPFLVGLHSCFQTTSRLFLVIEYVNGGDLMFHMQRQRKLPEEHARFYAAEICIALNFLHERGIIYRDLKLDNVLLDADGHIKLTDYGMCKEGLGPGDTTSTFCGTPNYIAPEILRGEEYGFSVDWWALGVLMFEMMAGRSPFDIITDNPDMNTEDYLFQVILEKPIRIPRFLSVKASHVLKGFLNKDPKERLGCRPQTGFSDIKSHAFFRSIDWDLLEKKQALPPFQPQITDDYGLDNFDTQFTSEPVQLTPDDEDAIKRIDQSEFEGFEYINPLLLSTEESV | Recombinant PKCζ did not phosphorylate TRAM again suggesting specificity |  |  | 
4 | PKCζ in THP1 cell lysates (protein) MPSRTGPKMEGSGGRVRLKAHYGGDIFITSVDAATTFEELCEEVRDMCRLHQQHPLTLKWVDSEGDPCTVSSQMELEEAFRLARQCRDEGLIIHVFPSTPEQPGLPCPGEDKSIYRRGARRWRKLYRANGHLFQAKRFNRRAYCGQCSERIWGLARQGYRCINCKLLVHKRCHGLVPLTCRKHMDSVMPSQEPPVDDKNEDADLPSEETDGIAYISSSRKHDSIKDDSEDLKPVIDGMDGIKISQGLGLQDFDLIRVIGRGSYAKVLLVRLKKNDQIYAMKVVKKELVHDDEDIDWVQTEKHVFEQASSNPFLVGLHSCFQTTSRLFLVIEYVNGGDLMFHMQRQRKLPEEHARFYAAEICIALNFLHERGIIYRDLKLDNVLLDADGHIKLTDYGMCKEGLGPGDTTSTFCGTPNYIAPEILRGEEYGFSVDWWALGVLMFEMMAGRSPFDIITDNPDMNTEDYLFQVILEKPIRIPRFLSVKASHVLKGFLNKDPKERLGCRPQTGFSDIKSHAFFRSIDWDLLEKKQALPPFQPQITDDYGLDNFDTQFTSEPVQLTPDDEDAIKRIDQSEFEGFEYINPLLLSTEESV |  |  | The removal of PKCζ had no effect on the phosphorylation of TRAM | 
